Data from patent US20240294670A1 (University of Texas, published 2024).

Legend:
Experiment in all cases: anti-His co-IP of rCHI3L1 from Kupffer cell lysate, MS; listed under 'proteins bound to CHI3L1'
Q3TVM2_MOUSE = target: T1, Q3TVM2_MOUSE (mouse, UniProt Q3TVM2 20-519)
T1 construct: also called tr|Q3TVM2|Q3TVM2_MOUSE
T1 sequence: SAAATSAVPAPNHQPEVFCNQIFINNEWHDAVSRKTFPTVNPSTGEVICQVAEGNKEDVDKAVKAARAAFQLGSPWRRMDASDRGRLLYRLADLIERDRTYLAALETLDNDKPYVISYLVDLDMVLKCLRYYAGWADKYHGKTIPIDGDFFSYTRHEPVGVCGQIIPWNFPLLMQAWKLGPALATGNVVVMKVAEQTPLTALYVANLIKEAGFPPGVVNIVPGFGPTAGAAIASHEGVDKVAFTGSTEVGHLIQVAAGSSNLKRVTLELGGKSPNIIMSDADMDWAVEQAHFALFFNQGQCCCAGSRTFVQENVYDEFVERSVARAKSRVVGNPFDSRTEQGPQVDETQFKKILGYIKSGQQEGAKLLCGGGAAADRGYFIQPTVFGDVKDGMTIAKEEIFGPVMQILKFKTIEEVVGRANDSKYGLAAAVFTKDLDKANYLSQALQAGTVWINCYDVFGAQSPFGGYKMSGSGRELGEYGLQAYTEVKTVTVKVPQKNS
Experimental: (§1) CHI3L1 interacts with CD44 on KCs. To further understand how CHI3L1 mediates the function of KCs to recruit platelets, the inventors set out to identify its receptor on KCs. They isolated KCs from WT mice treated with APAP for 3 h and incubated the cells with His-tagged rCHI3L1. The cell lysate was subjected to immunoprecipitation using an anti-His antibody. The “pulled down” fraction was subjected to LC/MS analyses. A partial list of proteins identified, including CHI3L1 itself, is shown in (Extended Data Table 1). Because CD44 is a cell membrane protein, the inventors decided to investigate it is a receptor for CHI3L1. They performed/immunoprecipitation experiments using liver homogenates obtained from WT and CD44^{-/-} mice after APAP treatment. […] Moreover, the inventors incubated rhCHI3L1 with human CD44 and then immunoprecipitated with an anti-CD44 antibody. The data confirmed a direct binding between CHI3L1 and CD44 (FIG. 3C). Consistent with the notion that many cell types express CD44, they detected CD44 express on various hepatic non-parenchymal cells (NPCs) except B cells and DCs (summarized in Extended Data Table 2). However, when they incubated liver NPCs with His-tagged rCHI3L1, the inventors observed that the only CD44-expressing cells that could bind to CHI3L1 were KCs (FIG. 3D).

Q3TF14_MOUSE = target: T2, Q3TF14_MOUSE (mouse, UniProt Q3TF14 2-432)
T2 construct: also called tr|Q3TF14|Q3TF14_MOUSE
T2 sequence: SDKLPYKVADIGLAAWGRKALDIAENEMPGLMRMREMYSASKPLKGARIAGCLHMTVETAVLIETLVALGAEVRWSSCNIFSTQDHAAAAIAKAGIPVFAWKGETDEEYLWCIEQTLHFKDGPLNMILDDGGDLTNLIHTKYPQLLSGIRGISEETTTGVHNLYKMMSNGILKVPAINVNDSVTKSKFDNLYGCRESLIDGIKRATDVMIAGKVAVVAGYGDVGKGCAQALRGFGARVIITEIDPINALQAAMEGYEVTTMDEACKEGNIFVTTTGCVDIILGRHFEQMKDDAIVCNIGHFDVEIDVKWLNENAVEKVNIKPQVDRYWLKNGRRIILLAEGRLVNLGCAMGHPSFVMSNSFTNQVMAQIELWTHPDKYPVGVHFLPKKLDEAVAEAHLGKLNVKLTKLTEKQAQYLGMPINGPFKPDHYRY
Experimental: as §1

Q3TJ66_MOUSE = target: T3, Q3TJ66_MOUSE (mouse, UniProt Q3TJ66 2-364)
T3 construct: also called tr|Q3TJ66|Q3TJ66_MOUSE
T3 sequence: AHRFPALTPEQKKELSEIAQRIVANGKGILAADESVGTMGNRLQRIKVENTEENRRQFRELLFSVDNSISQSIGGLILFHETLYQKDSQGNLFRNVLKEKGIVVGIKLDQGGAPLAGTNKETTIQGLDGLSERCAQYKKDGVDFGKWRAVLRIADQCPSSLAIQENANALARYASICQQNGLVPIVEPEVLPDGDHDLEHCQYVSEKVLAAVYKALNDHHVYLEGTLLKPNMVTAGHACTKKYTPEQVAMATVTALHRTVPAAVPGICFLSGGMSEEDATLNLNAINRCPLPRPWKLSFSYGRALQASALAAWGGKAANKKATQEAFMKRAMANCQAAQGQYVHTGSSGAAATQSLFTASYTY
Experimental: as §1

Q546G4_MOUSE = target: T4, Q546G4_MOUSE (mouse, UniProt Q546G4 25-608)
T4 construct: also called sp|Q546G4|Q546G4_MOUSE
Experimental: as §1

Q3UA81_MOUSE = target: T5, Q3UA81_MOUSE (mouse, UniProt Q3UA81 2-462)
T5 construct: also called tr|Q3UA81|Q3UA81_MOUSE
T5 sequence: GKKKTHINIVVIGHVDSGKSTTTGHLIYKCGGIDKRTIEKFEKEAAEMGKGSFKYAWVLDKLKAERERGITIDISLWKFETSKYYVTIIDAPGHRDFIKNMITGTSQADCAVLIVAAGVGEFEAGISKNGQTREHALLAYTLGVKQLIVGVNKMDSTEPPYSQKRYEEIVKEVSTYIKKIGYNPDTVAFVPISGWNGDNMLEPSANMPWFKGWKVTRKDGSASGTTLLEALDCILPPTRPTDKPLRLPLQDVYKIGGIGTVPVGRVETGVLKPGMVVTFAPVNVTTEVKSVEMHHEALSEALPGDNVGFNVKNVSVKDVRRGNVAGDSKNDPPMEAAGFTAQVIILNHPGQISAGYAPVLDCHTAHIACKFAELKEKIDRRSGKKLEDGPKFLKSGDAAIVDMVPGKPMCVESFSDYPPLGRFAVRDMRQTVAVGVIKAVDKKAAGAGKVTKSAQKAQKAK
Experimental: as §1

Measured: binding result

B1: recombinant mouse CHI3L1 (ligand)
chain: not shown
notes: His-tagged; also called mCHI3L1; mChi3l1
binds: Q3TVM2_MOUSE | Q3TF14_MOUSE | Q3TJ66_MOUSE | Q546G4_MOUSE | Q3UA81_MOUSE
